Reference: patent US20140087995A1 (published 2014)
Numbered stars: 1 amine (or outer) side, 2 acyl side, 3 side chain; on linkers, the order of the positions; unused ones are H or OH. Bridge positions count the residues as written; N and C are the ends. Side chains are listed from the residue outwards. Ends that are not written are not given here. * marks the point of attachment. C20 diacid = O=C(O)CCCCCCCCCCCCCCCCCCC(=O)*; γGlu = O=C(O)[C@H](CCC(=O)[*:2])N[*:1]; AEEA = NCCOCCOCC(=O)O

T1: human calcitonin receptor (human, UniProt P30988 25-474)
T1 construct: whole, on cells; Used as membranes prepared from the transfected cells; also called hCTR; hCT
T1 sequence (looked up): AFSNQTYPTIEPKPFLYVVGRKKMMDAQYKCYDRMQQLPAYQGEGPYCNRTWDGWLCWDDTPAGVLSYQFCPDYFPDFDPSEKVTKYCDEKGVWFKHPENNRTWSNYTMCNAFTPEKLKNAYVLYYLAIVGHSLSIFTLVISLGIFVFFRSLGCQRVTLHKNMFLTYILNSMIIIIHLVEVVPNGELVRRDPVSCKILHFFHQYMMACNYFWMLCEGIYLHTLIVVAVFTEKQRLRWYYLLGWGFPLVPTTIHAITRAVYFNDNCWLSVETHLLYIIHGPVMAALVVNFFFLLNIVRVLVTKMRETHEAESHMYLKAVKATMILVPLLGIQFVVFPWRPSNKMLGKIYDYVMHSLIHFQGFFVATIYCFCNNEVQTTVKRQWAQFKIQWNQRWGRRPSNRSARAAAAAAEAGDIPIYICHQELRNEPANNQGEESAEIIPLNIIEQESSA

T2: rat calcitonin receptor (rat, UniProt P32214 25-516)
T2 construct: whole, on cells; Used as membranes prepared from the transfected cells; also called rCTR; rCT
T2 sequence (looked up): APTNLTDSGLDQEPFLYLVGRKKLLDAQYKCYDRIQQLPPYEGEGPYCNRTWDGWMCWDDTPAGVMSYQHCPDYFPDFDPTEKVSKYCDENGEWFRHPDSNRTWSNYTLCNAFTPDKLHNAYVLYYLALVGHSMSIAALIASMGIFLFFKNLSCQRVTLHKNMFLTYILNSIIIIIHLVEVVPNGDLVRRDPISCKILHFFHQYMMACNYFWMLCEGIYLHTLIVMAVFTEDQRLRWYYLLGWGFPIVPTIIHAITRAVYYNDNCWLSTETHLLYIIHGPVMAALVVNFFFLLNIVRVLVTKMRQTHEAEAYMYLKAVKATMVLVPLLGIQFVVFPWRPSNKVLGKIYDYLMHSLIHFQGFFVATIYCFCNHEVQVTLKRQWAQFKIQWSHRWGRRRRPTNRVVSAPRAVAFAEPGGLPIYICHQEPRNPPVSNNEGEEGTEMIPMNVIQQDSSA


Legend:
[1] = biological target: T1, human calcitonin receptor; assay: ratio of binding IC50 at human calcitonin receptor to IC50 at human amylin receptor (reference)
Protocol: The resulting pellet was resuspended, homogenized and centrifuged (20.000 rpm, 15 min) in a buffer containing 20 mM Na-HEPES and 0.1 mM EDTA (pH 7.4, buffer 2). The resulting pellet was resuspended in buffer 2 and protein concentration was measured (BCA protein Assay, Pierce). The homogenate was kept cold during the whole procedure. The membranes were kept at −80° C. until use. The assay was performed in a 384 well Optiplate (PerkinElmer) in a total volume of 40 ul. Membranes were mixed with SPA beads. Final concentration of membranes 35 ng/μL final and SPA beads was 0.05 mg/well. Test-compounds were dissolved in DMSO and further diluted in assay buffer (50 mM Hepes, pH 7.4, 1 mM CaCl2, 5 mM MgCl₂, 0.1% OA and 0.02% Tween20). […] The final mixture was incubated with shaking at 400 rpm for 120 min at 25° C. prior to centrifugation (1500 rpm, 10 min). Samples were analyzed on TopCounter™ (Packard). The IC₅₀ was calculated using (one site binding competition analysis) GraphPad Prism5 as a measure of receptor affinity.
Membranes were prepared in the following way; the cells were rinsed with PBS and incubated with Versene for approximately 5 min before harvesting. The cells were flushed with PBS and the cell-suspension was centrifuged for 5 min at 1000 rpm. Cells were homogenized (Ultrathurrax) in a buffer containing 20 mM Na-HEPES and 10 mM EDTA (pH 7.4) and centrifuged at 20.000 rpm for 15 min. The resulting pellet was resuspended, homogenized and centrifuged (20.000 rpm, 15 min) in a buffer containing 20 mM Na-HEPES and 0.1 mM EDTA (pH 7.4, buffer 2). The resulting pellet was resuspended in buffer 2 and protein concentration was measured (BCA protein Assay, Pierce). The homogenate was kept cold during the whole procedure. The membranes were kept at −80° C. until use. Assay was performed in a 384 well Optiplate (PerkinElmer) in a total volume of 40 ul. Membranes were mixed with SPA beads.

rat calcitonin receptor [2] = biological target: T2, rat calcitonin receptor; assay: ratio of binding IC50 at rat calcitonin receptor to IC50 at rat amylin receptor (reference)
rat calcitonin receptor [3] = biological target: T2, rat calcitonin receptor; assay: SPA competition with 125I-calcitonin, membranes with rat calcitonin receptor (Assay VIII)

Ratio hCT/hAmylin binding [1] | Ratio rCT/rAmylin binding (rat calcitonin receptor [2]) | IC50 (rat calcitonin receptor [3]) [nM] | Binder
247 | 259 | 221 | K([AEEA-γGlu-C20 diacid])CNTATCATQRLAAFLRHSSPNFGAIPSSTPVGSNTY-NH2 (disulfide 2-7; N-terminus assumed; SMILES CC[C@H](C)[C@H](NC(=O)[C@H](C)NC(=O)CNC(=O)[C@H](Cc1ccccc1)NC(=O)[C@H](CC(N)=O)NC(=O)[C@@H]1CCCN1C(=O)[C@H](CO)NC(=O)[C@H](CO)NC(=O)[C@H](Cc1c[nH]cn1)NC(=O)[C@H](CCCNC(=N)N)NC(=O)[C@H](CC(C)C)NC(=O)[C@H](Cc1ccccc1)NC(=O)[C@H](C)NC(=O)[C@H](C)NC(=O)[C@H](CC(C)C)NC(=O)[C@H](CCCNC(=N)N)NC(=O)[C@H](CCC(N)=O)NC(=O)[C@@H](NC(=O)[C@H](C)NC(=O)[C@@H]1CSSC[C@H](NC(=O)[C@@H](N)CCCCNC(=O)COCCOCCNC(=O)CC[C@H](NC(=O)CCCCCCCCCCCCCCCCCCC(=O)O)C(=O)O)C(=O)N[C@@H](CC(N)=O)C(=O)N[C@@H]([C@@H](C)O)C(=O)N[C@@H](C)C(=O)N[C@@H]([C@@H](C)O)C(=O)N1)[C@@H](C)O)C(=O)N1CCC[C@H]1C(=O)N[C@@H](CO)C(=O)N[C@@H](CO)C(=O)N[C@H](C(=O)N1CCC[C@H]1C(=O)N[C@H](C(=O)NCC(=O)N[C@@H](CO)C(=O)N[C@@H](CC(N)=O)C(=O)N[C@H](C(=O)N[C@@H](Cc1ccc(O)cc1)C(N)=O)[C@@H](C)O)C(C)C)[C@@H](C)O, Analogue of human amylin; disulfide and C-terminal amide as told for h-amylin; also called compound 72)
126 | 64.7 | 128 | K([AEEA-γGlu-C20 diacid])CNTATCATQRLARFLRHSSPNFGAIPSSTPVGSNTY-NH2 (disulfide 2-7; N-terminus assumed; SMILES CC[C@H](C)[C@H](NC(=O)[C@H](C)NC(=O)CNC(=O)[C@H](Cc1ccccc1)NC(=O)[C@H](CC(N)=O)NC(=O)[C@@H]1CCCN1C(=O)[C@H](CO)NC(=O)[C@H](CO)NC(=O)[C@H](Cc1c[nH]cn1)NC(=O)[C@H](CCCNC(=N)N)NC(=O)[C@H](CC(C)C)NC(=O)[C@H](Cc1ccccc1)NC(=O)[C@H](CCCNC(=N)N)NC(=O)[C@H](C)NC(=O)[C@H](CC(C)C)NC(=O)[C@H](CCCNC(=N)N)NC(=O)[C@H](CCC(N)=O)NC(=O)[C@@H](NC(=O)[C@H](C)NC(=O)[C@@H]1CSSC[C@H](NC(=O)[C@@H](N)CCCCNC(=O)COCCOCCNC(=O)CC[C@H](NC(=O)CCCCCCCCCCCCCCCCCCC(=O)O)C(=O)O)C(=O)N[C@@H](CC(N)=O)C(=O)N[C@@H]([C@@H](C)O)C(=O)N[C@@H](C)C(=O)N[C@@H]([C@@H](C)O)C(=O)N1)[C@@H](C)O)C(=O)N1CCC[C@H]1C(=O)N[C@@H](CO)C(=O)N[C@@H](CO)C(=O)N[C@H](C(=O)N1CCC[C@H]1C(=O)N[C@H](C(=O)NCC(=O)N[C@@H](CO)C(=O)N[C@@H](CC(N)=O)C(=O)N[C@H](C(=O)N[C@@H](Cc1ccc(O)cc1)C(N)=O)[C@@H](C)O)C(C)C)[C@@H](C)O, Analogue of human amylin; disulfide and C-terminal amide as told for h-amylin; also called compound 64)
140 | 87 | 143 | K([AEEA-γGlu-C20 diacid])CNTATCATQRLARFLRHSSPNFGAIPSSTNVGSNTY-NH2 (disulfide 2-7; N-terminus assumed; SMILES CC[C@H](C)[C@H](NC(=O)[C@H](C)NC(=O)CNC(=O)[C@H](Cc1ccccc1)NC(=O)[C@H](CC(N)=O)NC(=O)[C@@H]1CCCN1C(=O)[C@H](CO)NC(=O)[C@H](CO)NC(=O)[C@H](Cc1c[nH]cn1)NC(=O)[C@H](CCCNC(=N)N)NC(=O)[C@H](CC(C)C)NC(=O)[C@H](Cc1ccccc1)NC(=O)[C@H](CCCNC(=N)N)NC(=O)[C@H](C)NC(=O)[C@H](CC(C)C)NC(=O)[C@H](CCCNC(=N)N)NC(=O)[C@H](CCC(N)=O)NC(=O)[C@@H](NC(=O)[C@H](C)NC(=O)[C@@H]1CSSC[C@H](NC(=O)[C@@H](N)CCCCNC(=O)COCCOCCNC(=O)CC[C@H](NC(=O)CCCCCCCCCCCCCCCCCCC(=O)O)C(=O)O)C(=O)N[C@@H](CC(N)=O)C(=O)N[C@@H]([C@@H](C)O)C(=O)N[C@@H](C)C(=O)N[C@@H]([C@@H](C)O)C(=O)N1)[C@@H](C)O)C(=O)N1CCC[C@H]1C(=O)N[C@@H](CO)C(=O)N[C@@H](CO)C(=O)N[C@H](C(=O)N[C@@H](CC(N)=O)C(=O)N[C@H](C(=O)NCC(=O)N[C@@H](CO)C(=O)N[C@@H](CC(N)=O)C(=O)N[C@H](C(=O)N[C@@H](Cc1ccc(O)cc1)C(N)=O)[C@@H](C)O)C(C)C)[C@@H](C)O, Analogue of human amylin; disulfide and C-terminal amide as told for h-amylin; also called compound 82)
60.7 | 69.9 | 90.6 | K([AEEA-γGlu-C20 diacid])CNTATCATQRLANFLRHSSPNFGAIPSSTNVGRNTY-NH2 (disulfide 2-7; N-terminus assumed; SMILES CC[C@H](C)[C@H](NC(=O)[C@H](C)NC(=O)CNC(=O)[C@H](Cc1ccccc1)NC(=O)[C@H](CC(N)=O)NC(=O)[C@@H]1CCCN1C(=O)[C@H](CO)NC(=O)[C@H](CO)NC(=O)[C@H](Cc1c[nH]cn1)NC(=O)[C@H](CCCNC(=N)N)NC(=O)[C@H](CC(C)C)NC(=O)[C@H](Cc1ccccc1)NC(=O)[C@H](CC(N)=O)NC(=O)[C@H](C)NC(=O)[C@H](CC(C)C)NC(=O)[C@H](CCCNC(=N)N)NC(=O)[C@H](CCC(N)=O)NC(=O)[C@@H](NC(=O)[C@H](C)NC(=O)[C@@H]1CSSC[C@H](NC(=O)[C@@H](N)CCCCNC(=O)COCCOCCNC(=O)CC[C@H](NC(=O)CCCCCCCCCCCCCCCCCCC(=O)O)C(=O)O)C(=O)N[C@@H](CC(N)=O)C(=O)N[C@@H]([C@@H](C)O)C(=O)N[C@@H](C)C(=O)N[C@@H]([C@@H](C)O)C(=O)N1)[C@@H](C)O)C(=O)N1CCC[C@H]1C(=O)N[C@@H](CO)C(=O)N[C@@H](CO)C(=O)N[C@H](C(=O)N[C@@H](CC(N)=O)C(=O)N[C@H](C(=O)NCC(=O)N[C@@H](CCCNC(=N)N)C(=O)N[C@@H](CC(N)=O)C(=O)N[C@H](C(=O)N[C@@H](Cc1ccc(O)cc1)C(N)=O)[C@@H](C)O)C(C)C)[C@@H](C)O, Analogue of human amylin; disulfide and C-terminal amide as told for h-amylin; also called compound 78)
